# Data published in patent US20130143948A1, “MST1 AS A PROGNOSTIC BIOMARKER AND THERAPEUTIC TARGET IN HUMAN CANCER” (CEDARS-SINAI MEDICAL CENTER, priority 2010, published 2013).
# B1: MST1: serine-threonine kinase MST1 (mammalian sterile STE20-like kinase 1), enforced Dox-inducible HA-tagged expression in tumor cells (protein, UniProt Q13043 1-487, looked up)
# Serine/threonine-protein …: METVQLRNPPRRQLKKLDEDSLTKQPEEVFDVLEKLGEGSYGSVYKAIHKETGQIVAIKQVPVESDLQEIIKEISIMQQCDSPHVVKYYGSYFKNTDLWIVMEYCGAGSVSDIIRLRNKTLTEDEIATILQSTLKGLEYLHFMRKIHRDIKAGNILLNTEGHAKLADFGVAGQLTDTMAKRNTVIGTPFWMAPEVIQEIGYNCVADIWSLGITAIEMAEGKPPYADIHPMRAIFMIPTNPPPTFRKPELWSDNFTDFVKQCLVKSPEQRATATQLLQHPFVRSAKGVSILRDLINEAMDVKLKRQESQQREVDQDDEENSEEDEMDSGTMVRAVGDEMGTVRVASTMTDGANTMIEHDDTLPSQLGTMVINAEDEEEEGTMKRRDETMQPAKPSFLEYFEQKEKENQINSFGKSVPGPLKNSSDWKIPQDGDYEFLKSWTVEDLQKRLLALDPMMEQEIEEIRQKYQSKRQPILDAIEAKKRRQQNF
# modifications: HA tag
# notes: serine-threonine kinase MST1 (mammalian sterile STE20-like kinase 1), enforced Dox-inducible HA-tagged expression in tumor cells
# Columns and labels:
# LNCaP/Vector cells = test: BrdU incorporation cell proliferation assay, LNCaP/Vector; type: cell-based; settings: Dox 4 μg/ml, 24 hr
# Procedure: For in vitro kinase assay, the recombinant, pre-activated MST1 protein kinase was incubated with purified GST-AR DBD/HR fusion protein and 10 μCi ^32P-γ-ATP or 100 μM unlabeled-ATP. The reaction mixture was resolved on SDS-PAGE and autoradiographed. Cell-Death ELISA and BrdU incorporation assays were performed to assess cell death and cell proliferation, respectively, according to the manufacturer's instructions (Roche Molecular Diagnostics).
# [1] = system: C4-2/HA-MST1 tumor xenografts; test: Subcutaneous prostate cancer xenograft in athymic nude mice; type: in vivo
# Procedure: C4-2/Vector or C4-2/HA-MST1 cells mixed with Matrigel (1-to-1 ratio) were inoculated subcutaneously in athymic nude mice (CD-1 nu/nu; Charles River Laboratories, Wilmington, Mass.). 1×10^6 cells/100 μl were used per injection per site (right and left flanks). Mice were treated with Dox (0.5 mg/ml) in drinking water to induce MST1 expression for 12 weeks. Institutional Animal Care and Use Committee (IACUC) policies and guidelines were strictly applied. Tumor volumes were assessed by caliper according to procedures described previously (20). Mice were sacrificed and evaluated for tumor growth anatomically and tumor tissues extracted from mice were fixed in 10% formaldehyde for the construction of histological sections or “snap” frozen at −80° C. The expression of MST1 was verified in histological sections by immunohistochemistry using anti-HA antibody.
# [2] = C4-2/HA-MST1 vs C4-2/Vector, Dox in drinking water, 12 weeks
Molecule,effect on cell growth (LNCaP/Vector cells),"mice that developed tumors ([1]; 12 weeks after subcutaneous inoculation, 10 mice per group)","suppression of tumor growth [1, 2] [fold]","suppression of tumorigenic rates [1, 2] [fold]"
"C[C@H]1c2cccc(O)c2C(=O)C2=C(O)[C@]3(O)C(=O)C(C(N)=O)=C(O)[C@@H](N(C)C)[C@@H]3[C@@H](O)[C@@H]21 [Dox, doxycycline]",no effect,–,–,–
B1,–,2 out of 10,35,4
